# According to PMC11445476, “CHC22 clathrin recruitment to the early secretory pathway requires two-site interaction with SNX5 and p115” (The EMBO Journal, 2024):
# Substitutions are numbered along the chain they refer to.
# T1: His-SUMO-tagged CHC17 terminal domain (human, UniProt Q00610 1-364)
# T1 construct: CHC17 clathrin heavy chain, N-terminal domain (TD), residues 1-364; also called CHC17 TD; His-bdSUMO-CHC17 TD; source: E. coli Rosetta 2 pLysS, purified (HisTrap, size exclusion); not shown: His, N-terminal, kept; bdSUMO, N-terminal, kept
# T1 sequence (looked up): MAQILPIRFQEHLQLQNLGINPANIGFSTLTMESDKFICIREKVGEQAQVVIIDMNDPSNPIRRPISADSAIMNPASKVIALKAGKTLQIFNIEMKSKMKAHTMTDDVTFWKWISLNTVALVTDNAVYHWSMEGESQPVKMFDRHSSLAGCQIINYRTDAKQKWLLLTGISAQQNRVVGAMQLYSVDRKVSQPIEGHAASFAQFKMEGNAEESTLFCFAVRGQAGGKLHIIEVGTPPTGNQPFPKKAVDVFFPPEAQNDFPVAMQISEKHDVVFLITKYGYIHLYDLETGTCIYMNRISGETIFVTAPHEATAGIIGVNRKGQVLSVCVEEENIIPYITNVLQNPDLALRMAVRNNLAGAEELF
# T2: full-length GST-SNX5 phosphomimetic S226E mutant (human, UniProt Q9Y5X3 1-404, S226E)
# T2 construct: sorting nexin 5, human, full-length (1-404) with phosphomimetic point mutation S226E in the BAR domain; The making of the mutant is not described; also called GST-SNX5 S226E; not shown: GST, N-terminal, kept
# T2 sequence (looked up): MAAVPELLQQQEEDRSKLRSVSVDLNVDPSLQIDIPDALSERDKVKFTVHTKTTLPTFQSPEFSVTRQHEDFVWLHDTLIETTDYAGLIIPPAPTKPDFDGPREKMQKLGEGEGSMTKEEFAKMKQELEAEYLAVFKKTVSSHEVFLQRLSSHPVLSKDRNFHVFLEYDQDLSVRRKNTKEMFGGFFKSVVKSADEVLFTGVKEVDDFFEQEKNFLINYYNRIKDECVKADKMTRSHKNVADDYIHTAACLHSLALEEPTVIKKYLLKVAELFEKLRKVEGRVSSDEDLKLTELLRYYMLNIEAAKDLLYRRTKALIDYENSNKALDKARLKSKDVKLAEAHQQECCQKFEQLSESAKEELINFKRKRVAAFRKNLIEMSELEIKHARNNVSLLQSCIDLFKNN
# T3: full-length GST-p115 (UniProt O60763 1-962)
# T3 construct: p115, full-length, residues 1-962, amplified from pIY119 into pGEX3; not shown: GST, N-terminal, kept
# T3 sequence (looked up): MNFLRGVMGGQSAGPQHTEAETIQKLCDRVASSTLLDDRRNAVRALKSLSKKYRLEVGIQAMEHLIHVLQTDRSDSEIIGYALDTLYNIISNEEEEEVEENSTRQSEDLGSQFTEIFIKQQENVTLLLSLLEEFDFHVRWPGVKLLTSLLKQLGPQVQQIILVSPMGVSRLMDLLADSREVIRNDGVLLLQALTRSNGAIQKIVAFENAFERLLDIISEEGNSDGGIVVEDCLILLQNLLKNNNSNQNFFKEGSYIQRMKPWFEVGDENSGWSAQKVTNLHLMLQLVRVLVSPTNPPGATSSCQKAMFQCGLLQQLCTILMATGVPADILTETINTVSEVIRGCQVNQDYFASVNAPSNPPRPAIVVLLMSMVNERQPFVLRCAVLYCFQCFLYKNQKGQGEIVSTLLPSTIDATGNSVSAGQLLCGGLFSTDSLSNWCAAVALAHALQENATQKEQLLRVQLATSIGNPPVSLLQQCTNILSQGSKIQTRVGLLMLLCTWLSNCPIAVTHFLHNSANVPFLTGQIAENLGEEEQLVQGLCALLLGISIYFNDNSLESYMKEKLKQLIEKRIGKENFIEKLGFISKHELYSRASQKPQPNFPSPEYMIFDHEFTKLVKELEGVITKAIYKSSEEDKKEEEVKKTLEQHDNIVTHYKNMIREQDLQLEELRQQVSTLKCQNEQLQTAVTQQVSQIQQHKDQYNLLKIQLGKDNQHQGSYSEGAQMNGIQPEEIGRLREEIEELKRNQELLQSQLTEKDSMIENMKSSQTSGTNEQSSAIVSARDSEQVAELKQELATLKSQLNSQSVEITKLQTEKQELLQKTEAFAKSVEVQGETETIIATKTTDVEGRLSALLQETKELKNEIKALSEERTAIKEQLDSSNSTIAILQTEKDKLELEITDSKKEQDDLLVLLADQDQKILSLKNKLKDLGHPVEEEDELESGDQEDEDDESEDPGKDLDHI
# T4: full-length His-p115 (UniProt O60763 1-962)
# T4 construct: p115, full-length, encoded by plasmid pIY119 (gift, Munro lab); not shown: 6xHis, N-terminal, kept
# T4 sequence (looked up): T3 sequence (looked up)
# T5: His-tagged CHC22 Hub (human, UniProt P53675 1074-1640)
# T5 construct: CHC22 clathrin heavy chain, Hub domain (C-terminal third), residues 1074-1640; also called His-CHC22-Hub; not shown: 6xHis, N-terminal, kept
# T5 sequence (looked up): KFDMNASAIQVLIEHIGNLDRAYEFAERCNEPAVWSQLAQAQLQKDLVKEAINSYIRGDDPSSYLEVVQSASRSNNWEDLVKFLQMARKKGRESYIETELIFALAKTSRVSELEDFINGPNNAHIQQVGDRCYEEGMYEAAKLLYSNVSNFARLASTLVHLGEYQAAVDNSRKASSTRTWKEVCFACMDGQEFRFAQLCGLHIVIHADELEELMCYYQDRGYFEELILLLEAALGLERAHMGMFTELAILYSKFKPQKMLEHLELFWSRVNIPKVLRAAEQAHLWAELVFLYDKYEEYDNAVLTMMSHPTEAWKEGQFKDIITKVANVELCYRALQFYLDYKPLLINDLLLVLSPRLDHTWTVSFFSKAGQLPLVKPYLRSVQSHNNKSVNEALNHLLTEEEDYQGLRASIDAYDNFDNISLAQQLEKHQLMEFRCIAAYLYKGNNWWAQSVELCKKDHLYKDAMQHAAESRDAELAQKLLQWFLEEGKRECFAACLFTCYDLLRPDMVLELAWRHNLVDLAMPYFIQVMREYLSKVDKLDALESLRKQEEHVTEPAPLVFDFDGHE
# B1: GST-GGA2-HE (domain or fragment, UniProt Q9UJY4 316-613, looked up)
# chain: GRVTFGNRVTSSLGDIPVSRVFQNPAGCMKTCPLIDLEVDNGPAQMGTVVPSLLHQDLAALGISDAPVTGMVSGQNCCEEKRNPSSSTLPGGGVQNPSADRNLLDLLSAQPAPCPLNYVSQKSVPKEVPPGTKSSPGWSWEAGPLAPSPSSQNTPLAQVFVPLESVKPSSLPPLIVYDRNGFRILLHFSQTGAPGHPEVQVLLLTMMSTAPQPVWDIMFQVAVPKSMRVKLQPASSSKLPAFSPLMPPAVISQMLLLDNPHKEPIRLRYKLTFNQGGQPFSEVGEVKDFPDLAVLGAA
# notes: GGA2, hinge-GAE (hinge-ear) fragment, residues 316-613; also called GGA2-hinge-GAE; hinge-ear fragment of GGA2; not shown: GST, N-terminal, kept
# B2: His-tagged CHC22 TxD (domain or fragment, human, UniProt P53675 1521-1640, looked up)
# chain: WAQSVELCKKDHLYKDAMQHAAESRDAELAQKLLQWFLEEGKRECFAACLFTCYDLLRPDMVLELAWRHNLVDLAMPYFIQVMREYLSKVDKLDALESLRKQEEHVTEPAPLVFDFDGHE
# notes: CHC22 clathrin heavy chain, trimerization domain; methods give residues 1521-1640, the results 1520-1640; Limits told in two ways (1521-1640 in methods, 1520-1640 in results); also called His-22TxD; His-CHC22 TxD; source: E. coli BL21 (DE3), purified (HisTrap, size exclusion); not shown: 6xHis, N-terminal, kept
# B3: His-SUMO-tagged CHC22 terminal domain, wild-type (domain or fragment, human, UniProt P53675 1-364, looked up)
# chain: MAQILPVRFQEHFQLQNLGINPANIGFSTLTMESDKFICIREKVGEQAQVTIIDMSDPMAPIRRPISAESAIMNPASKVIALKAGKTLQIFNIEMKSKMKAHTMAEEVIFWKWVSVNTVALVTETAVYHWSMEGDSQPMKMFDRHTSLVGCQVIHYRTDEYQKWLLLVGISAQQNRVVGAMQLYSVDRKVSQPIEGHAAAFAEFKMEGNAKPATLFCFAVRNPTGGKLHIIEVGQPAAGNQPFVKKAVDVFFPPEAQNDFPVAMQIGAKHGVIYLITKYGYLHLYDLESGVCICMNRISADTIFVTAPHKPTSGIIGVNKKGQVLSVCVEEDNIVNYATNVLQNPDLGLRLAVRSNLAGAEKLF
# notes: CHC22 clathrin heavy chain, N-terminal domain (TD), residues 1-364; also called CHC22 TD; His-bdSUMO-CHC22 TD; source: E. coli Rosetta 2 pLysS, purified (HisTrap, size exclusion); not shown: His, N-terminal, kept; bdSUMO, N-terminal, kept
# B4: full-length GST-SNX5 wild-type (natural protein, human, UniProt Q9Y5X3 1-404, looked up)
# chain: T2 sequence (looked up) with E226S
# notes: sorting nexin 5, human, full-length, residues 1-404, amplified from human cDNA of the GM25256 cell line, in pGEX3; also called GST-SNX5 WT; WT; source: E. coli Rosetta 2 pLysS, purified (GSTrap, size exclusion); not shown: GST, N-terminal, kept
# Columns and labels:
# Conditions in all cases: both partners purified
# [1] = target: B3; experiment: pull-down; GST, GST-GGA2-HE or GST-p115 on glutathione beads, 12.5 µg purified His-bdSUMO-CHC22 TD (WT or Chim) in 250 µl CHC22 PD buffer for 45 min, immunoblot
# [2] = target: T1, His-SUMO-tagged CHC17 terminal domain; experiment: pull-down; GST, GST-GGA2-HE or GST-p115 on glutathione beads, 12.5 µg purified His-bdSUMO-CHC17 TD in 250 µl CHC17 PD buffer for 60 min, immunoblot
# [3] = target: B4
# [4] = target: T2, full-length GST-SNX5 phosphomimetic …
# [5] = target: T3, full-length GST-p115; experiment: pull-down; GST, GST-GGA2-HE or GST-p115 on glutathione beads, 12.5 µg purified His-bdSUMO-CHC22 TD (WT or Chim) in 250 µl CHC22 PD buffer for 45 min, immunoblot
# [6] = target: T6, full-length His-SNX1 (UniProt Q13596 1-522)
# T6 construct: SNX1, full-length, residues 1-522, sub-cloned from a plasmid of the Cullen lab into pET15b; also called recombinant SNX1; source: E. coli BL21 (DE3), purified (HisTrap, size exclusion); not shown: 6xHis, N-terminal, kept
# [7] = target: T4, full-length His-p115; experiment: pull-down; His-tagged bait on Ni-NTA HisPur beads, 15 µg purified GST-only or GST-SNX5 as prey in 250 µL His PD buffer for 45 min, immunoblot
# [8] = target: T5, His-tagged CHC22 Hub; experiment: as above
# T6 sequence (Q13596 whole entry, the tested form may be a part): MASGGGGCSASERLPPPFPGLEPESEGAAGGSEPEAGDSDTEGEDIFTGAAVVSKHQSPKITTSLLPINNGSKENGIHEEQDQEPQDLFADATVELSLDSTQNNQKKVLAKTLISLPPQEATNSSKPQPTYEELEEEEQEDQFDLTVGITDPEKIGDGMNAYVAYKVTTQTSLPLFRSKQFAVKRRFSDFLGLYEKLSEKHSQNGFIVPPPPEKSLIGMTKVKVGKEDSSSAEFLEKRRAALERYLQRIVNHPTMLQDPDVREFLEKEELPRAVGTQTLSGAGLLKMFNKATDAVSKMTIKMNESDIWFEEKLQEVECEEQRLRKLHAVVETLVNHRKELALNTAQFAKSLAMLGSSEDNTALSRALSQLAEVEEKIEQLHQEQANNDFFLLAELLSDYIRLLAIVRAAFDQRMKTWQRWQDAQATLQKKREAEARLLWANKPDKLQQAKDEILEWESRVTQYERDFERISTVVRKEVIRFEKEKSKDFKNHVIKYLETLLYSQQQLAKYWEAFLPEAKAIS
binder,measurement,setting,value
B1,binding result,[1],binds
same,binding result,[2],binds
B2,binding result,[3],binds
same,binding result,[4],binds
B3,binding result,[5],binds
B4,binding result,[6],binds
same,binding result,[7],binds
same,binding result,[8],binds
